Experimental data published in paper PMC3518043.

Target: Histone H3 N-terminal peptide trimethylated at lysine-4 (celluspot peptide #1)
Assay: peptide or protein array

Sequence of GST-tagged CHD5 PHD1 finger (338-393) (Q8TDI0 338-393): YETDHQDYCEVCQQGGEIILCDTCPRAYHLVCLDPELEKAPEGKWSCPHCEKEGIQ
Sequence of GST-tagged CHD5 PHD2 finger (413-468) (Q8TDI0 413-468): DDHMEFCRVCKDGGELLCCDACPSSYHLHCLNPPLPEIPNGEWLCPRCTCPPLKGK

Substance	decrease in signal against unmodified H3 [%]
GST-tagged CHD5 PHD1 finger (338-393) (from UniProt Q8TDI0 338-393) (domain or fragment)	> 90
GST-tagged CHD5 PHD2 finger (413-468) (from UniProt Q8TDI0 413-468) (domain or fragment)	> 90
